Data as given in patent publication US20200024330A1.

What was measured:
Assay in all cases: cell-based or functional assay
[1] = target: HIV-1 Env of isolate SF162 (HIV-1) (UniProt P19550)
[2] = target: HIV-1 Env of isolate QH0692.42 (HIV-1)
[3] = target: HIV-1 Env of isolate TRO.11 (HIV-1)
[4] = target: HIV-1 Env of isolate MGRM-D-018 (HIV-1)
[5] = target: HIV-1 Env of isolate MGRM-F1-012 (HIV-1)
[6] = target: HIV-1 Env of isolate MGRM-D-028 (HIV-1)
[7] = target: HIV-1 Env of isolate 97ZA012 (HIV-1)
[8] = target: HIV-1 Env of isolate MGRM-D-016 (HIV-1)
[9] = target: HIV-1 Env of isolate MGRM-Chronic-B-018 (HIV-1)
[10] = target: HIV-1 Env of isolate MGRM-D-022 (HIV-1)
[11] = target: HIV-1 Env of isolate TRJ04551.58 (HIV-1)
[12] = target: HIV-1 Env of isolate MGRM-D-019 (HIV-1)
[13] = target: HIV-1 Env of isolate MGRM-D-024 (HIV-1)
[14] = target: HIV-1 Env of isolate MGRM-D-026 (HIV-1)
[15] = target: HIV-1 Env of isolate MGRM-F1-006 (HIV-1)
[16] = target: HIV-1 Env of isolate 98IN022 (HIV-1)
[17] = target: HIV-1 Env of isolate MGRM-D-020 (HIV-1)
[18] = target: HIV-1 Env of isolate NL43 (HIV-1)
[19] = target: HIV-1 Env of isolate MGRM-D-029 (HIV-1)
[20] = target: HIV-1 Env of isolate MGRM-D-014 (HIV-1)
[21] = target: HIV-1 Env of isolate MGRM-Chronic-B-023 (HIV-1)
[22] = target: HIV-1 Env of isolate MGRM-Chronic-B-017 (HIV-1)
[23] = target: HIV-1 Env of isolate MGRM-F1-022 (HIV-1)
[24] = target: HIV-1 Env of isolate MGRM-F1-018 (HIV-1)
[25] = target: HIV-1 Env of isolate MGRM-Chronic-B-011 (HIV-1)
[26] = target: HIV-1 Env of isolate MGRM-Chronic-B-024 (HIV-1)
[27] = target: HIV-1 Env of isolate MGRM-Chronic-B-012 (HIV-1)
[28] = target: HIV-1 Env of isolate MGRM-F1-014 (HIV-1)
[29] = target: HIV-1 Env of isolate 93IN905 (HIV-1)
[30] = target: HIV-1 Env of isolate MGRM-D-011 (HIV-1)
[31] = target: HIV-1 Env of isolate MGRM-D-013 (HIV-1)
[32] = target: HIV-1 Env of isolate MGRM-F1-023 (HIV-1)
[33] = target: HIV-1 Env of isolate JRCSF (HIV-1) (UniProt P20871)
[34] = target: HIV-1 Env of isolate 93MW959 (HIV-1)
[35] = target: HIV-1 Env of isolate MGRM-F1-020 (HIV-1)
[36] = target: HIV-1 Env of isolate MGRM-F1-017 (HIV-1)
[37] = target: HIV-1 Env of isolate MGRM-D-012 (HIV-1)
[38] = target: HIV-1 Env of isolate PVO.4 (HIV-1)
[39] = target: HIV-1 Env of isolate MGRM-Chronic-B-010 (HIV-1)
[40] = target: HIV-1 Env of isolate MGRM-F1-021 (HIV-1)
[41] = target: HIV-1 Env of isolate VLGCB3 (HIV-1)
[42] = target: HIV-1 Env of isolate MGRM-D-021 (HIV-1)
[43] = target: HIV-1 Env of isolate MGRM-Chronic-B-020 (HIV-1)
[44] = target: HIV-1 Env of isolate MGRM-F1-010 (HIV-1)
[45] = target: HIV-1 Env of isolate THR0.18 (HIV-1)
[46] = target: HIV-1 Env of isolate MGRM-F1-016 (HIV-1)
[47] = target: HIV-1 Env of isolate MGRM-F1-004 (HIV-1)
[48] = target: HIV-1 Env of isolate SC422661.8 (HIV-1)
[49] = target: HIV-1 Env of isolate MGRM-F1-015 (HIV-1)
[50] = target: HIV-1 Env of isolate MGRM-F1-013 (HIV-1)
[51] = target: HIV-1 Env of isolate MGRM-F1-008 (HIV-1)
[52] = target: HIV-1 92UG024 envelope glycoprotein (Env) on pseudovirus (HIV-1)
[53] = target: HIV-1 MGRM-D-018 envelope glycoprotein (Env) on pseudovirus (HIV-1)
[54] = target: HIV-1 92TH021 envelope glycoprotein (Env) on pseudovirus (HIV-1)

PGT-145 (antibody), sequence (VH): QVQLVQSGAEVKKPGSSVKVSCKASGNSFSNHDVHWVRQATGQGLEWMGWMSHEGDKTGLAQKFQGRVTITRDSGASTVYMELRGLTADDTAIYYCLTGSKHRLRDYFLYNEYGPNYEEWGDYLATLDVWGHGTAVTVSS
PGT-145 (antibody), sequence (VL): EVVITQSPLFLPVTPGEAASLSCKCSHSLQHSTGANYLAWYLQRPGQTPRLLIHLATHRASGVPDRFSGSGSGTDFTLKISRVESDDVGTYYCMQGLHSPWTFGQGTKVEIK
PGT-141 (antibody), sequence (VH): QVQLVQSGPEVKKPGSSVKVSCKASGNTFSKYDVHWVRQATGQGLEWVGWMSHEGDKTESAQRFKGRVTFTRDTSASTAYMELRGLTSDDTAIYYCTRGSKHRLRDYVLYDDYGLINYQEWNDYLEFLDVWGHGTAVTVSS
PGT-141 (antibody), sequence (VL): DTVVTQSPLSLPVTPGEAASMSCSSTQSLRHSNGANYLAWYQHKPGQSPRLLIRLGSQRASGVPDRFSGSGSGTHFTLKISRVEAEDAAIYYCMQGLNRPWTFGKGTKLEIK

## PGT-141 (antibody)
[1]
  neutralization IC50: > 50 µg/mL
[2]
  neutralization IC50: > 50 µg/mL
[3]
  neutralization IC50: 0.383 µg/mL
[4]
  IC50, pseudovirus neutralization: > 50 µg/mL
[5]
  IC50, pseudovirus neutralization: > 50 µg/mL
[6]
  IC50, pseudovirus neutralization: < 50 µg/mL
[7]
  neutralization IC50: > 50 µg/mL
[8]
  IC50, pseudovirus neutralization: > 50 µg/mL
[9]
  neutralization IC50: 0.572 µg/mL
[10]
  IC50, pseudovirus neutralization: > 50 µg/mL
[11]
  neutralization IC50: > 50 µg/mL
[12]
  IC50, pseudovirus neutralization: 1.66 µg/mL
[13]
  IC50, pseudovirus neutralization: > 50 µg/mL
[14]
  IC50, pseudovirus neutralization: 32.5 µg/mL
[15]
  IC50, pseudovirus neutralization: 8.99 µg/mL
[16]
  neutralization IC50: 0.001 µg/mL
[17]
  IC50, pseudovirus neutralization: > 50 µg/mL
[18]
  neutralization IC50: > 50 µg/mL
[19]
  IC50, pseudovirus neutralization: 0.057 µg/mL
[20]
  IC50, pseudovirus neutralization: 0.01 µg/mL
[21]
  neutralization IC50: 0.318 µg/mL
[22]
  neutralization IC50: 0.147 µg/mL
[23]
  IC50, pseudovirus neutralization: 0.114 µg/mL
[24]
  IC50, pseudovirus neutralization: 0.785 µg/mL
[25]
  neutralization IC50: 2.24 µg/mL
[26]
  neutralization IC50: 0.011 µg/mL
[27]
  neutralization IC50: > 50 µg/mL
[28]
  IC50, pseudovirus neutralization: 0.001 µg/mL
[29]
  neutralization IC50: 0.001 µg/mL
[30]
  IC50, pseudovirus neutralization: > 50 µg/mL
[31]
  IC50, pseudovirus neutralization: 0.179 µg/mL
[32]
  IC50, pseudovirus neutralization: 0.307 µg/mL
[33]
  neutralization IC50: 0.009 µg/mL
[34]
  neutralization IC50: 0.003 µg/mL
[35]
  IC50, pseudovirus neutralization: 1.15 µg/mL
[36]
  IC50, pseudovirus neutralization: 30.8 µg/mL
[37]
  IC50, pseudovirus neutralization: > 50 µg/mL
[38]
  neutralization IC50: 0.113 µg/mL
[39]
  neutralization IC50: > 50 µg/mL
[40]
  IC50, pseudovirus neutralization: > 50 µg/mL
[41]
  neutralization IC50: > 50 µg/mL
[42]
  IC50, pseudovirus neutralization: > 50 µg/mL
[43]
  neutralization IC50: > 50 µg/mL
[44]
  IC50, pseudovirus neutralization: > 50 µg/mL
[45]
  neutralization IC50: 0.007 µg/mL
[46]
  IC50, pseudovirus neutralization: > 50 µg/mL
[47]
  IC50, pseudovirus neutralization: 0.021 µg/mL
[48]
  neutralization IC50: 1.66 µg/mL
[49]
  IC50, pseudovirus neutralization: > 50 µg/mL
[50]
  IC50, pseudovirus neutralization: 0.043 µg/mL
[51]
  IC50, pseudovirus neutralization: 0.193 µg/mL

## PGT-145 (antibody)
[1]
  neutralization IC50: > 50 µg/mL
[2]
  neutralization IC50: > 50 µg/mL
[3]
  neutralization IC50: 0.044 µg/mL
[4]
  IC50, pseudovirus neutralization: 0.065 µg/mL
[5]
  IC50, pseudovirus neutralization: 0.113 µg/mL
[6]
  IC50, pseudovirus neutralization: 0.721 µg/mL
[7]
  neutralization IC50: 0.915 µg/mL
[8]
  IC50, pseudovirus neutralization: > 50 µg/mL
[9]
  neutralization IC50: 0.013 µg/mL
[10]
  IC50, pseudovirus neutralization: 34.3 µg/mL
[11]
  neutralization IC50: > 50 µg/mL
[12]
  IC50, pseudovirus neutralization: 0.111 µg/mL
[13]
  IC50, pseudovirus neutralization: 0.224 µg/mL
[14]
  IC50, pseudovirus neutralization: 0.41 µg/mL
[15]
  IC50, pseudovirus neutralization: 13.6 µg/mL
[16]
  neutralization IC50: 0.005 µg/mL
[17]
  IC50, pseudovirus neutralization: 10 µg/mL
[18]
  neutralization IC50: 0.006 µg/mL
[19]
  IC50, pseudovirus neutralization: 0.03 µg/mL
[20]
  IC50, pseudovirus neutralization: 2.51 µg/mL
[21]
  neutralization IC50: 0.009 µg/mL
[22]
  neutralization IC50: 0.054 µg/mL
[23]
  IC50, pseudovirus neutralization: 0.009 µg/mL
[24]
  IC50, pseudovirus neutralization: 1.02 µg/mL
[25]
  neutralization IC50: 0.206 µg/mL
[26]
  neutralization IC50: 0.018 µg/mL
[27]
  neutralization IC50: 9.66 µg/mL
[28]
  IC50, pseudovirus neutralization: 0.009 µg/mL
[29]
  neutralization IC50: 0.002 µg/mL
[30]
  IC50, pseudovirus neutralization: 14.7 µg/mL
[31]
  IC50, pseudovirus neutralization: 3.48 µg/mL
[32]
  IC50, pseudovirus neutralization: 5.88 µg/mL
[33]
  neutralization IC50: 0.002 µg/mL
[34]
  neutralization IC50: 1.2 µg/mL
[35]
  IC50, pseudovirus neutralization: 0.816 µg/mL
[36]
  IC50, pseudovirus neutralization: 0.286 µg/mL
[37]
  IC50, pseudovirus neutralization: > 50 µg/mL
[38]
  neutralization IC50: 0.299 µg/mL
[39]
  neutralization IC50: > 50 µg/mL
[40]
  IC50, pseudovirus neutralization: 8.04 µg/mL
[41]
  neutralization IC50: > 50 µg/mL
[42]
  IC50, pseudovirus neutralization: > 50 µg/mL
[43]
  neutralization IC50: > 50 µg/mL
[44]
  IC50, pseudovirus neutralization: 3.32 µg/mL
[45]
  neutralization IC50: 0.013 µg/mL
[46]
  IC50, pseudovirus neutralization: 17.5 µg/mL
[47]
  IC50, pseudovirus neutralization: 0.361 µg/mL
[48]
  neutralization IC50: 0.079 µg/mL
[49]
  IC50, pseudovirus neutralization: 1.76 µg/mL
[50]
  IC50, pseudovirus neutralization: 0.402 µg/mL
[51]
  IC50, pseudovirus neutralization: 0.228 µg/mL

## 1496_C09 (PG9) (TCN-109) monoclonal antibody
[52]
  IC50, pseudovirus neutralization: 1.91 µg/mL
[53]
  IC50, pseudovirus neutralization: 0.0444 µg/mL
[54]
  IC50, pseudovirus neutralization: 0.103 µg/mL
